Reference: US20260144882A1 (BIO THERA SOLUTIONS, published 2026)
Residue numbers refer to the chain shown, from its start. Where two headings read alike, the source gives them in different places.

B1: antibody 1B4 (antibody, human IgG1, kappa, V domains shown)
VH: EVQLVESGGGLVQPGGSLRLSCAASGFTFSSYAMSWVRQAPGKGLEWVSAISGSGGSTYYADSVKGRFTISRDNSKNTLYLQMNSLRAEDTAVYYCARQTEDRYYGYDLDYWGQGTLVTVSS
VL: DIQMTQSPSSLSASVGDRVTITCRASQGISSYLAWYQQKPGKAPKLLIYAASSLQSGVPSRFSGSGSGTDFTLTISSLQPEDFATYYCQQHYTTPPTFGQGTKVEIKR
B2: antibody 10F4-1A1 (antibody, human IgG1, kappa, V domains shown)
VH: EVQLVESGGGLVQPGGSLRLSCAASGFSFDNYDMSWVRQAPGKGLEWVSSIKPGSAYKFYADSVKGRFTISRDNSKNTLYLQMNSLRAEDTAVYYCAREYSDVVDYVSVRTPLDYWGQGTLVTVSS
VL: B1 VL
B3: antibody 10F4-2C12 (antibody, human IgG1, kappa, V domains shown)
VH: EVQLVESGGGLVQPGGSLRLSCAASGYNFGDYSMSWVRQAPGKGLEWVSVIDTTSAYTRYADSVKGRFTISRDNSKNTLYLQMNSLRAEDTAVYYCAREYSDVVDYVSVRTPLDYWGQGTLVTVSS
VL: B1 VL
B4: antibody 1F3-1G11 (antibody, human IgG1, kappa, V domains shown)
VH: EVQLVESGGGLVQPGGSLRLSCAASGYSFTGYGMSWVRQAPGKGLEWVSGISPSGGTIGYADSVKGRFTISRDNSKNTLYLQMNSLRAEDTAVYYCARAELLAFDVYTASDYWGQGTLVTVSS
VL: B1 VL
B5: antibody 1G12 (antibody, human IgG1, kappa, V domains shown)
VH: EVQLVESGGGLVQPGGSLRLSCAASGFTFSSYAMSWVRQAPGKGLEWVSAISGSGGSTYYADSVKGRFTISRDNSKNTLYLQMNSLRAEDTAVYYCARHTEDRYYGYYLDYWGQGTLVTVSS
VL: B1 VL
B6: antibody 1G7 (antibody, human IgG1, kappa, V domains shown)
VH: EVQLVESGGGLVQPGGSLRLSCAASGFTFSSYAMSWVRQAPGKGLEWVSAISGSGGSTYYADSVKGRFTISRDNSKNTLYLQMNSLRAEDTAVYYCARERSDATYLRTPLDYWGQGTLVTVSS
VL: B1 VL
B7: antibody 10F4-5 (antibody, human IgG1, kappa, V domains shown)
VH: B2 VH with S28I, N31G, S50V, P53D, G54H, S55G, A56G
VL: B1 VL
B8: antibody 1F3-2E8 (antibody, human IgG1, kappa, V domains shown)
VH: B4 VH with T30S, G31D, G50W, G55K, T57S, I58A, G59S
VL: B1 VL
B9: antibody 1F3-1B1 (antibody, human IgG1, kappa, V domains shown)
VH: B4 VH with Y27F, S28T, T30G, G31T, S52K, S54G, G55D, G56S, I58T, G59Y
VL: B1 VL
B10: antibody 10F4-1H11 (antibody, human IgG1, kappa, V domains shown)
VH: EVQLVESGGGLVQPGGSLRLSCAASGYTFTGFWMSWVRQAPGKGLEWVSSISPDSGTKHYADSVKGRFTISRDNSKNTLYLQMNSLRAEDTAVYYCAREYSDVVDYVSVRTPLDYWGQGTLVTVSS
VL: B1 VL
B11: antibody 1F3-2B1 (antibody, human IgG1, kappa, V domains shown)
VH: B4 VH with S28N, T30D, G31N, G33A, S52K, S54D, G55S, G56A, I58T, G59Y
VL: B1 VL
B12: antibody 10F4-2C6 (antibody, human IgG1, kappa, V domains shown)
VH: EVQLVESGGGLVQPGGSLRLSCAASGFNFGGFDMSWVRQAPGKGLEWVSGIKQYKGYTSYADSVKGRFTISRDNSKNTLYLQMNSLRAEDTAVYYCAREYSDVVDYVSVRTPLDYWGQGTLVTVSS
VL: B1 VL
B13: antibody 10F4-1 (antibody, human IgG1, kappa, V domains shown)
VH: B2 VH with F27D, D30T, D33W, S50G, K52S, P53Q, S55G, A56S, K58A, F59Y
VL: B1 VL
B14: antibody 1F3-2F3 (antibody, human IgG1, kappa, V domains shown)
VH: EVQLVESGGGLVQPGGSLRLSCAASGFNFSDYGMSWVRQAPGKGLEWVSRIDWDGGNTRYADSVKGRFTISRDNSKNTLYLQMNSLRAEDTAVYYCARAELLAFDVYTASDYWGQGTLVTVSS
VL: B1 VL
B15: antibody 10A4 (antibody, human IgG1, kappa, V domains shown)
VH: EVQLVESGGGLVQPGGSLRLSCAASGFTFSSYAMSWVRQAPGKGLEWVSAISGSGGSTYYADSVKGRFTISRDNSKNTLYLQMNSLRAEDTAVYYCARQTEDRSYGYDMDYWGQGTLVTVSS
VL: B1 VL
B16: antibody 10F4-2F11 (antibody, human IgG1, kappa, V domains shown)
VH: B12 VH with F27Y, G30T, G31S, F32Y, Q53T, Y54G, K55G, Y57S, T58A, S59R
VL: B1 VL
B17: antibody 1F3-1E1 (antibody, human IgG1, kappa, V domains shown)
VH: B4 VH with Y27F, T30D, G31D, G33A, G50I, S52Y, S54T, G56S, I58N, G59Y
VL: B1 VL
B18: antibody 10F4-1H6 (antibody, human IgG1, kappa, V domains shown)
VH: B12 VH with G30Y, G31D, F32Y, Q53T, Y54H, K55S, Y57G, T58N, S59G
VL: B1 VL
B19: antibody 10F4-3 (antibody, human IgG1, kappa, V domains shown)
VH: B3 VH with Y27F, N28S, Y32F, S33A, T53G, T54H, S55T, T58N, R59S
VL: B1 VL

Assays:
[1] = target: T1, human Nectin-4 extracellular antigen hNectin-4-His (human, UniProt Q96NY8 32-349); experiment: SPR, antibody on Protein A chip, hNectin-4-His analyte, 1:1 fit
T1 construct: C-terminal 8xHis tag included
T1 sequence: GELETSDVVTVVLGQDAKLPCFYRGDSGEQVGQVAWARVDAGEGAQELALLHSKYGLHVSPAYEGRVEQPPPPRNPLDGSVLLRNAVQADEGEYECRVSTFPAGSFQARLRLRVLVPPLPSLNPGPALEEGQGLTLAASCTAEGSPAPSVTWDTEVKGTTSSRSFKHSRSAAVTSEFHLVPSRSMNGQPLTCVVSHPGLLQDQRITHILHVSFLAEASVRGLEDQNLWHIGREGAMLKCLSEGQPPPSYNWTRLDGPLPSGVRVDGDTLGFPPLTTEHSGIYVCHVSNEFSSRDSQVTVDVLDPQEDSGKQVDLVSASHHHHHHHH
From the text: (§1) In this study, the affinity of the antibodies for the human Nectin-4 extracellular antigen was detected by surface plasmon resonance (SPR) technique (BIAcore: GE Healthcare, T200).

[2] = target: T1, human Nectin-4 extracellular antigen …; experiment: ELISA, coated hNectin-4-His
From the text: (§2) The binding activity of the antibodies was detected by ELISA.

[3] = target: T2, human Nectin-4, full length on cells (human, UniProt Q96NY8 32-510); experiment: flow cytometry, T-47D cells, antibody bound on ice, 0 h at 37 C
T2 construct: whole, on cells; T-47D cells positive for Nectin-4 expression; also called Nectin-4 on T-47D cells; CHO-Nectin-4
T2 sequence (looked up): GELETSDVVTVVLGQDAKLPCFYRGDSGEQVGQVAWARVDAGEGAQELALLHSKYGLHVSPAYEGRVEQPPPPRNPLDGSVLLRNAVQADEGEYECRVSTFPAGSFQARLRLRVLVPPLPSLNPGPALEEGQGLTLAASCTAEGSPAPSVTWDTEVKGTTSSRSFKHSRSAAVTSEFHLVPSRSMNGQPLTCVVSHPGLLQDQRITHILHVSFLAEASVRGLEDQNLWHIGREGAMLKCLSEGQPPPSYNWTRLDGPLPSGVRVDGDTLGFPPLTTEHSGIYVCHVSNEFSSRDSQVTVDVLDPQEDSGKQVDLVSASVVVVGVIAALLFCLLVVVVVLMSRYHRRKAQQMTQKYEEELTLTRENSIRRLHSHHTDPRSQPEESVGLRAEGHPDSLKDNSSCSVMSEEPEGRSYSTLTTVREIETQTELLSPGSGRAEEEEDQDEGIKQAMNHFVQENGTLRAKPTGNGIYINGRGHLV
Description: (§3) In this assay, the relative amount of antibodies remaining on the cell surface after co-incubation at 37° C. for a certain period of time was detected by FACS to reflect the endocytosis efficiency. The procedures are briefly described as follows: T-47D cells (human ductal breast cancer cells, derived from the Cell Bank of Chinese Academy of Sciences, Cat.No. TCHu 87); the antibodies of interest were adjusted to 10 µg/mL and co-incubated with the cells on ice for 1 h; the cells were washed 3 times with pre-cooled PBS, and then placed at 37° C. and incubated for 0 h, 2 h and 4 h; 0.2% N₃Na was added to stop the endocytosis reaction; the cells were washed with PBS thrice, followed by the addition of the PE-labeled anti-human Fc secondary antibody (Invitrogen 12-4998-82); the cells were incubated at 4° C. for 30 min; the red fluorescence signal was detected on a flow cytometer.

[4] = target: T1, human Nectin-4 extracellular antigen …; experiment: SPR, antibody on Protein A chip, 1:1 fit
From the text: as §1

[5] = target: T1, human Nectin-4 extracellular antigen …; experiment: ELISA, coated hNectin-4-His; remark: listed apart in the source
From the text: as §2

[6] = target: T1, human Nectin-4 extracellular antigen …; experiment: ELISA, coated hNectin-4-His; remark: listed apart in the source
From the text: as §2

[7] = target: T2, human Nectin-4, full length on cells; experiment: flow cytometry, T-47D cells, antibody bound on ice, 0 h at 37 C; remark: listed apart in the source
Description: as §3

Row | Binder | Kd [1] [pM] | koff [1] [s⁻¹] | kon [1] [M⁻¹ s⁻¹] | EC50 [2] [µg/mL] | MFI (mean fluorescence intensity) 0 h [3] [MFI] | Kd [4] [pM] | koff [4] [s⁻¹] | kon [4] [M⁻¹ s⁻¹] | EC50 [5] [µg/mL] | EC50 [6] [µg/mL] | MFI (mean fluorescence intensity) 0 h [7] [MFI]
1 | B1 | 5330 | 0.0032 | 600000 | 0.025 | 108000 |  |  |  |  |  | 
2 | B2 |  |  |  |  |  | 432 | 0.000186 | 430000 | 0.051 |  | 
3 | B3 |  |  |  |  |  | 533 | 0.000304 | 570000 | 0.06 |  | 
4 | B4 |  |  |  |  |  | 815 | 0.00115 | 1.41e+06 |  | 0.007 | 60500
5 | B5 | 8610 | 0.00464 | 539000 | 0.073 |  |  |  |  |  |  | 
6 | B6 | 16700 | 0.00631 | 377000 | 0.022 |  |  |  |  |  |  | 
7 | B7 |  |  |  |  |  | 399 | 0.000137 | 343000 |  |  | 63400
8 | B8 |  |  |  |  |  | 872 | 0.00102 | 1.17e+06 |  | 0.009 | 58200
9 | B9 |  |  |  |  |  | 170 | 0.000204 | 1.2e+06 |  | 0.016 | 65300
10 | B10 |  |  |  |  |  | 605 | 0.000212 | 350000 | 0.059 |  | 
11 | B11 |  |  |  |  |  | 241 | 0.000317 | 1.32e+06 |  | 0.014 | 59400
12 | B12 |  |  |  |  |  | 285 | 8.36e-05 | 294000 | 0.09 |  | 
13 | B13 |  |  |  |  |  | 545 | 0.000226 | 415000 |  |  | 58600
14 | B14 |  |  |  |  |  | 370 | 0.000519 | 1.4e+06 |  | 0.011 | 69000
15 | B15 | 6710 | 0.00232 | 346000 | 0.041 | 107000 |  |  |  |  |  | 
16 | B16 |  |  |  |  |  | 396 | 0.000161 | 406000 | 0.078 |  | 
17 | B17 |  |  |  |  |  | 141 | 0.000212 | 1.51e+06 |  | 0.017 | 73400
18 | B18 |  |  |  |  |  | 505 | 0.000151 | 299000 | 0.063 |  | 
19 | B19 |  |  |  |  |  | 352 | 0.000122 | 346000 |  |  | 61200
